Source: the RNAGym collection of RNA variant scans (doi:10.1101/gr.219683.116)

B1: mRNA-splicing (parent)
chain: AGUUGCUGCUGGGAGCUCCAGCACAGUGAAAUGGACAGAAGGGCAGAGCAA

Variants of: B1
Test: exon inclusion enrichment index; higher = more inclusion; WT1 exon 5 minigene, HEK293
With G5C C6A U7C G8A U10A C18A C19A the “exon inclusion enrichment index” value was 0.0025. In the case of G5C C6A U7C G8A U10A C18A C19U, the “exon inclusion enrichment index” value is reported as 0.00173. In the case of G5C C6A U7C G8A U10A C18A C19G, the “exon inclusion enrichment index” value is reported as 0.00323. In the case of G5C C6A U7C G8A U10A G15C C16G, the “exon inclusion enrichment index” value is reported as 0.0998. In the case of G5C C6A U7C G8A U10A G15C C16U, the “exon inclusion enrichment index” value is reported as 0.0687. In the case of G5C C6A U7C G8A U10A G15C C16A, the “exon inclusion enrichment index” value is reported as 0.0594. For G5C C6A U7C G8A U10A C24G A25U, the “exon inclusion enrichment index” value was 0.184. With G5C C6A U7C G8A U10A C24G A25C the “exon inclusion enrichment index” value was 0.71. With G5C C6A U7C G8A U10A C24G A25G the “exon inclusion enrichment index” value was 0.034. In the case of G5C C6A U7C G8A U10A G28A, the “exon inclusion enrichment index” value is reported as 0.0118. With G5C C6A U7C G8A U10A G28C the “exon inclusion enrichment index” value was 0.0496. For G5C C6A U7C G8A U10A G28U, the “exon inclusion enrichment index” value was 0.00934. For G5C C6A U7C G8A U10A C36G A37G, the “exon inclusion enrichment index” value was 0.00352. For G5C C6A U7C G8A U10A C36G A37U, the “exon inclusion enrichment index” value was 0.0414. With G5C C6A U7C G8A U10A C36G A37C the “exon inclusion enrichment index” value was 0.0273. In the case of G5C C6A U7C G8A U10A G11C G12A, the “exon inclusion enrichment index” value is reported as 0.0929. In the case of G5C C6A U7C G8A U10A G11C G12C, the “exon inclusion enrichment index” value is reported as 0.382. With G5C C6A U7C G8A U10A G11C G12U the “exon inclusion enrichment index” value was 0.0425. With G5C C6A U7C G8A U10A C19U A20U the “exon inclusion enrichment index” value was 0.0111. With G5C C6A U7C G8A U10A C19U A20C the “exon inclusion enrichment index” value was 0.0561. In the case of G5C C6A U7C G8A U10A C19U A20G, the “exon inclusion enrichment index” value is reported as 0.0251. For G5C C6A U7C G8A U10A C22A, the “exon inclusion enrichment index” value was 0.0834. For G5C C6A U7C G8A U10A C22U, the “exon inclusion enrichment index” value was 0.0831. For G5C C6A U7C G8A U10A C22G, the “exon inclusion enrichment index” value was 0.197. For G5C C6A U7C G8A U10A C44A A45G, the “exon inclusion enrichment index” value was 0.213. For G5C C6A U7C G8A U10A C44A A45C, the “exon inclusion enrichment index” value was 0.385. For G5C C6A U7C G8A U10A C44A A45U, the “exon inclusion enrichment index” value was 0.339. For G5C C6A U7C G8A U10A G12A G13A, the “exon inclusion enrichment index” value was 0.114. With G5C C6A U7C G8A U10A G12A G13U the “exon inclusion enrichment index” value was 0.016. For G5C C6A U7C G8A U10A G12A G13C, the “exon inclusion enrichment index” value was 0.0982. For G5C C6A U7C G8A U10A G15C, the “exon inclusion enrichment index” value was 0.0588. For G5C C6A U7C G8A U10A G15U, the “exon inclusion enrichment index” value was 0.098. For G5C C6A U7C G8A U10A G15A, the “exon inclusion enrichment index” value was 0.0449. For G5C C6A U7C G8A U10A C44G A45U, the “exon inclusion enrichment index” value was 0.109. For G5C C6A U7C G8A U10A C44G A45G, the “exon inclusion enrichment index” value was 0.00762. With G5C C6A U7C G8A U10A C44G A45C the “exon inclusion enrichment index” value was 0.204. With G5C C6A U7C G8A U10A G11C the “exon inclusion enrichment index” value was 0.99. For G5C C6A U7C G8A U10A G11A, the “exon inclusion enrichment index” value was 0.832. With G5C C6A U7C G8A U10A G11U the “exon inclusion enrichment index” value was 0.955. For G5C C6A U7C G8A U10A G13U A14U, the “exon inclusion enrichment index” value was 0.0352. For G5C C6A U7C G8A U10A G13U A14C, the “exon inclusion enrichment index” value was 0.0603. With G5C C6A U7C G8A U10A G13U A14G the “exon inclusion enrichment index” value was 0.0515. For G5C C6A U7C G8A U10A G12C G13U, the “exon inclusion enrichment index” value was 0.0133. With G5C C6A U7C G8A U10A G12C G13C the “exon inclusion enrichment index” value was 0.0502. In the case of G5C C6A U7C G8A U10A G12C G13A, the “exon inclusion enrichment index” value is reported as 0.181. In the case of G5C C6A U7C G8A U10A G15A C16A, the “exon inclusion enrichment index” value is reported as 0.00997. For G5C C6A U7C G8A U10A G15A C16G, the “exon inclusion enrichment index” value was 0.0227. In the case of G5C C6A U7C G8A U10A G15A C16U, the “exon inclusion enrichment index” value is reported as 0.0227. In the case of G5C C6A U7C G8A U10A G21U C22G, the “exon inclusion enrichment index” value is reported as 0.113. With G5C C6A U7C G8A U10A G21U C22A the “exon inclusion enrichment index” value was 0.0315. For G5C C6A U7C G8A U10A G21U C22U, the “exon inclusion enrichment index” value was 0.011. In the case of G5C C6A U7C G8A U10A C18G C19U, the “exon inclusion enrichment index” value is reported as 0.00896. With G5C C6A U7C G8A U10A C18G C19G the “exon inclusion enrichment index” value was 0.186. With G5C C6A U7C G8A U10A C18G C19A the “exon inclusion enrichment index” value was 0.143. With G5C C6A U7C G8A U10A G21C C22A the “exon inclusion enrichment index” value was 0.0674. With G5C C6A U7C G8A U10A G21C C22U the “exon inclusion enrichment index” value was 0.105. With G5C C6A U7C G8A U10A G21C C22G the “exon inclusion enrichment index” value was 0.322. With G5C C6A U7C G8A U10A G26C U27G the “exon inclusion enrichment index” value was 0.537. For G5C C6A U7C G8A U10A G26C U27A, the “exon inclusion enrichment index” value was 0.076. In the case of G5C C6A U7C G8A U10A G26C U27C, the “exon inclusion enrichment index” value is reported as 0.54. In the case of G5C C6A U7C G8A U10A G26A U27G, the “exon inclusion enrichment index” value is reported as 0.258. With G5C C6A U7C G8A U10A G26A U27A the “exon inclusion enrichment index” value was 0.131. For G5C C6A U7C G8A U10A G26A U27C, the “exon inclusion enrichment index” value was 0.555. In the case of G5C C6A U7C G8A U10A G12C, the “exon inclusion enrichment index” value is reported as 0.365. In the case of G5C C6A U7C G8A U10A G12A, the “exon inclusion enrichment index” value is reported as 0.208. With G5C C6A U7C G8A U10A G12U the “exon inclusion enrichment index” value was 0.0134. With G5C C6A U7C G8A U10A C36U A37G the “exon inclusion enrichment index” value was 0.111. For G5C C6A U7C G8A U10A C36U A37C, the “exon inclusion enrichment index” value was 0.0938. With G5C C6A U7C G8A U10A C36U A37U the “exon inclusion enrichment index” value was 0.0725. In the case of G5C C6A U7C G8A U10A C19A A20C, the “exon inclusion enrichment index” value is reported as 0.0294. In the case of G5C C6A U7C G8A U10A C19A A20G, the “exon inclusion enrichment index” value is reported as 0.00417. With G5C C6A U7C G8A U10A C19A A20U the “exon inclusion enrichment index” value was 0.00249. For G5C C6A U7C G8A U10A G26A, the “exon inclusion enrichment index” value was 0.156. In the case of G5C C6A U7C G8A U10A G26U, the “exon inclusion enrichment index” value is reported as 0.091. In the case of G5C C6A U7C G8A U10A G26C, the “exon inclusion enrichment index” value is reported as 0.141. In the case of G5C C6A U7C G8A U10A G13U, the “exon inclusion enrichment index” value is reported as 0.00463. For G5C C6A U7C G8A U10A G13C, the “exon inclusion enrichment index” value was 0.0242. In the case of G5C C6A U7C G8A U10A G13A, the “exon inclusion enrichment index” value is reported as 0.277. In the case of G5C C6A U7C G8A U10A C36U, the “exon inclusion enrichment index” value is reported as 0.0372. With G5C C6A U7C G8A U10A C36G the “exon inclusion enrichment index” value was 0.0563. For G5C C6A U7C G8A U10A C36A, the “exon inclusion enrichment index” value was 0.0935. In the case of G5C C6A U7C G8A U10A C24A A25U, the “exon inclusion enrichment index” value is reported as 0.146. In the case of G5C C6A U7C G8A U10A C24A A25G, the “exon inclusion enrichment index” value is reported as 0.156.
